Where a chain is given by its changes, count along the chain named. One block for each binder: values may come before it.
Biological target: CD3ε homodimer protein (human, UniProt P07766 23-126, limits assumed)
Experiment: SPR, immobilized CD3ε homodimer;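 also: biacore T200 surface plasmon resonance at 25 °C, antibody variants flowed as analytes over amine-coupled CD3ε homodimer on a CM4 chip, variant binding amount divided by that of GLS3000 antibody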

CD3ε homodimer protein, sequence (P07766 23-126 limits assumed): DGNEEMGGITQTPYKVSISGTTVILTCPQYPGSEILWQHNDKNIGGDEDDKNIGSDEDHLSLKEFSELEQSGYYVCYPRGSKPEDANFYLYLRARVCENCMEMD

B1: GLS3000 S27aI (antibody, name in Kabat numbering, V domains shown)
VH: QVQLVESGGGVVQPGRSLRLSCAASGFTFSNAWMHWVRQAPGKGLEWVAQIKAKSNNYATYYAESVKGRFTISRDDSKNSLYLQMNSLKTEDTAVYYCRYVHYGAYYGVDAWGQGTTVTVSS
VL: DIVMTQSPLSLPVTPGEPASISCRSSQILVHSNRNTYLHWYQQKPGQAPRLLIYKVSNRFSGVPDRFSGSGSGTDFTLKISRVEAEDVGVYYCGQGTQVPYTFGQGTKLEIK
notes: one-arm format as m2
ratio of amounts bound (vs GLS3000): 1

B3: GLS3000 S27eW (antibody, name in Kabat numbering, V domains shown)
VH: B1 VH
VL: B1 VL with I28S, S32W
notes: one-arm format as m2
ratio of amounts bound (vs GLS3000): 1.55

B4: GLS3000 S56F (antibody, name in Kabat numbering, V domains shown)
VH: B1 VH
VL: B1 VL with I28S, S61F
notes: one-arm format as m2
ratio of amounts bound (vs GLS3000): 1.32

B5: GLS3000 S56E (antibody, name in Kabat numbering, V domains shown)
VH: B1 VH
VL: B1 VL with I28S, S61E
notes: one-arm format as m2
ratio of amounts bound (vs GLS3000): 0.71

B6: GLS3000 S27eG (antibody, name in Kabat numbering, V domains shown)
VH: B1 VH
VL: B1 VL with I28S, S32G
notes: one-arm format as m2
ratio of amounts bound (vs GLS3000): 1.04

B8: GLS3000 S27eR (antibody, name in Kabat numbering, V domains shown)
VH: B1 VH
VL: B1 VL with I28S, S32R
notes: one-arm format as m2
ratio of amounts bound (vs GLS3000): 1.58

B10: GLS3000 S27eY (antibody, name in Kabat numbering, V domains shown)
VH: B1 VH
VL: B1 VL with I28S, S32Y
notes: one-arm format as m2
ratio of amounts bound (vs GLS3000): 1.2

B13: GLS3000 S27aN (antibody, name in Kabat numbering, V domains shown)
VH: B1 VH
VL: B1 VL with I28N
notes: one-arm format as m2
ratio of amounts bound (vs GLS3000): 1.1

B14: GLS3000 S56H (antibody, name in Kabat numbering, V domains shown)
VH: B1 VH
VL: B1 VL with I28S, S61H
notes: one-arm format as m2
ratio of amounts bound (vs GLS3000): 1.05

B16: GLS3000 S27eT (antibody, name in Kabat numbering, V domains shown)
VH: B1 VH
VL: B1 VL with I28S, S32T
notes: one-arm format as m2
ratio of amounts bound (vs GLS3000): 0.97

B17: GLS3000 S52A (antibody, name in Kabat numbering, V domains shown)
VH: B1 VH
VL: B1 VL with I28S, S57A
notes: one-arm format as m2
ratio of amounts bound (vs GLS3000): 0.93

B18: GLS3000 S27aP (antibody, name in Kabat numbering, V domains shown)
VH: B1 VH
VL: B1 VL with I28P
notes: one-arm format as m2
ratio of amounts bound (vs GLS3000): 0.99

B21: GLS3000 S27eV (antibody, name in Kabat numbering, V domains shown)
VH: B1 VH
VL: B1 VL with I28S, S32V
notes: one-arm format as m2
ratio of amounts bound (vs GLS3000): 1.08

B23: GLS3000 S52D (antibody, name in Kabat numbering, V domains shown)
VH: B1 VH
VL: B1 VL with I28S, S57D
notes: one-arm format as m2
ratio of amounts bound (vs GLS3000): 0.63

B25: GLS3000 S27eH (antibody, name in Kabat numbering, V domains shown)
VH: B1 VH
VL: B1 VL with I28S, S32H
notes: one-arm format as m2
ratio of amounts bound (vs GLS3000): 1.23

B27: GLS3000 S52Y (antibody, name in Kabat numbering, V domains shown)
VH: B1 VH
VL: B1 VL with I28S, S57Y
notes: one-arm format as m2
ratio of amounts bound (vs GLS3000): 1.12

B28: GLS3000 S52Q (antibody, name in Kabat numbering, V domains shown)
VH: B1 VH
VL: B1 VL with I28S, S57Q
notes: one-arm format as m2
ratio of amounts bound (vs GLS3000): 1.05

B29: GLS3000 S56G (antibody, name in Kabat numbering, V domains shown)
VH: B1 VH
VL: B1 VL with I28S, S61G
notes: one-arm format as m2
ratio of amounts bound (vs GLS3000): 0.92

B31: GLS3000 S56A (antibody, name in Kabat numbering, V domains shown)
VH: B1 VH
VL: B1 VL with I28S, S61A
notes: one-arm format as m2
ratio of amounts bound (vs GLS3000): 1.16

Other lines, results leading:

ratio of amounts bound (vs GLS3000): 1.17
B2: GLS3000 S27eL (antibody, name in Kabat numbering, V domains shown)
VH: B1 VH
VL: B1 VL with I28S, S32L
notes: one-arm format as m2

ratio of amounts bound (vs GLS3000): 0.33
B7: GLS3000 S52P (antibody, name in Kabat numbering, V domains shown)
VH: B1 VH
VL: B1 VL with I28S, S57P
notes: one-arm format as m2

ratio of amounts bound (vs GLS3000): 1.32
B9: GLS3000 S27eF (antibody, name in Kabat numbering, V domains shown)
VH: B1 VH
VL: B1 VL with I28S, S32F
notes: one-arm format as m2

ratio of amounts bound (vs GLS3000): 0.77
B11: GLS3000 S56D (antibody, name in Kabat numbering, V domains shown)
VH: B1 VH
VL: B1 VL with I28S, S61D
notes: one-arm format as m2

ratio of amounts bound (vs GLS3000): 0.69
B12: GLS3000 S27eD (antibody, name in Kabat numbering, V domains shown)
VH: B1 VH
VL: B1 VL with I28S, S32D
notes: one-arm format as m2

ratio of amounts bound (vs GLS3000): 1.26
B15: GLS3000 S27eP (antibody, name in Kabat numbering, V domains shown)
VH: B1 VH
VL: B1 VL with I28S, S32P
notes: one-arm format as m2

ratio of amounts bound (vs GLS3000): 1.23
B19: GLS3000 S27eM (antibody, name in Kabat numbering, V domains shown)
VH: B1 VH
VL: B1 VL with I28S, S32M
notes: one-arm format as m2

ratio of amounts bound (vs GLS3000): 1.59
B20: GLS3000 S27eK (antibody, name in Kabat numbering, V domains shown)
VH: B1 VH
VL: B1 VL with I28S, S32K
notes: one-arm format as m2

ratio of amounts bound (vs GLS3000): 0.76
B22: GLS3000 S27eE (antibody, name in Kabat numbering, V domains shown)
VH: B1 VH
VL: B1 VL with I28S, S32E
notes: one-arm format as m2

ratio of amounts bound (vs GLS3000): 1.1
B24: GLS3000 S27eQ (antibody, name in Kabat numbering, V domains shown)
VH: B1 VH
VL: B1 VL with I28S, S32Q
notes: one-arm format as m2

ratio of amounts bound (vs GLS3000): 1.07
B26: GLS3000 S27eI (antibody, name in Kabat numbering, V domains shown)
VH: B1 VH
VL: B1 VL with I28S, S32I
notes: one-arm format as m2

ratio of amounts bound (vs GLS3000): 1.1
B30: GLS3000 S27aY (antibody, name in Kabat numbering, V domains shown)
VH: B1 VH
VL: B1 VL with I28Y
notes: one-arm format as m2

ratio of amounts bound (vs GLS3000): 1.16
B32: GLS3000 S27eN (antibody, name in Kabat numbering, V domains shown)
VH: B1 VH
VL: B1 VL with I28S, S32N
notes: one-arm format as m2
